Assay: yeast display, Sf9 membrane polyspecificity reagent, FACS + sequencing; frameworks hold sequencing errors
Summary of the method: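 Synthetic nanobody libraries on Saccharomyces cerevisiae BJ5465 were galactose-induced for 36–48 hours, stained 1 hour at 4 °C with 10% biotinylated, detergent-solubilized Sf9 membrane reagent and enriched on streptavidin microbeads. FACS then separated cells into low and high (top ~1%) gates by anti-HA (expression) and streptavidin (reagent binding) fluorescence. Genes were colony-PCR amplified, MiSeq 2 × 250 sequenced and CDR-length filtered. A clone's polyreactivity label is that of its gate of origin.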

Row | Sequence | polyreactivity (PSR sort gate)
1 | QVQLVESGGGLVHAGCSLRLSCAASVSTFQVYGLGWYRQAPGKEREMVAAISRSGVRTYYADSVKARFTMSRDNAKNTVYLQMNSLKPEDTAVYYCAKTYQSTTSKSGYYYWGQGTQVTVSS | high polyreactivity
2 | QVQLVESGGGLVQAGGSLRLSCAASGFIFQGYAMGWYRQAHGKEREFVAAITTSGGTTYYADSVKGSFTISRDNAKNTVYLQKNSLKPEDTAVYYCAARGATVSTRIYGYWGQGPQVTVSS | high polyreactivity
3 | QVQLQESGGGLVQAGGSLRLSCAASGYISYCVGMGWYRQAPGKEREFVASIAVGSNTYYADSVKGRFTISRYNAKISVYLQRNSLKPEDTAVYYCSVEDSWTYRFDYWGQGTQVTVSS | high polyreactivity
4 | QVQLVESGGGLVQAGGSLRLSCAASGSIFITYAMGWYRQAPGKERELVAAIRDSGDRTYYADSVKGRFTISRDNAKNTVYLQMNSLKPEDTEVYYCNALWQEPLKYDYWGQGTQVTVSS | low polyreactivity
5 | QVQLVESGAGLVQAGGSLRLSCAASGFSFQSYTMGWSRQAPGKERELVAAISRSGGRTYYADSVKGRFTISRDNAKNTVYLQMTSLKPEDTAVYYCAVDYRTRVDYWGQGTQLTVSS | high polyreactivity
6 | QVQLVESGGGLVQAGGSLRLSCAASGRIFLYYAMGWYRQAPGKERELVAAISFRGGSTYYADSVKGRFTISRDNAKNTVYLQMNSLKPEDTAVYYCNAVRDWGPSQVYDGMDYWGQGTQVTVSS | low polyreactivity
7 | QVQLVESGGGLVQAGGSLRLSCAASGRTFYSYTMGWYRQAPGKEREFVAAISSSGSSTYYADSVKGRFTISRDNAKYTVYLQMNSLKPEDTAVYYCAATRYRYPGYFRYDYWGQGTQVTVSS | high polyreactivity
8 | QVHLVESGGGLVQAGGRLRLSCDASGRTFKGYAMGWYRQAPGQERELGAAISFTGGSTYYADSVKGRFTISRDNAKNPVDLQMNSLKPEDTAVYYCNAVNYRGYGYWGQGTQVTVSS | high polyreactivity
9 | QVQLVESGGGLVQAGGSLRLRCAASGTNSVQYAMGGYRQAPGKERELVAAIDRSGGSTSYADSVKGRFTISRDNAKNTVYLQMNSLKQEDTAVYYCNADPFRSTYSYDYWGQGTQVTVSS | low polyreactivity
10 | QVQLVDSGGGLVQAGGSHRLSCAASGLTFRKYPMGWYRQAPGKERELVATISRNGGSTYYADSVKGRFTISRDNAKNTVYFQMNSLKPEDTAVFYCAADYYNYDYAGYGYWGQVTQVTVSS | high polyreactivity
11 | QVQLVESGGGLVQAGGSLRLSCASSGRTFLHNAMGWYRQAPGKERELVAAISSRGGSTYYADSVKGRFTISRDNAKNTVYLQMNSLKPEDTAVYYCAADLVVYRYDYWGQGTQVTVSS | high polyreactivity
12 | QVQLVESGGRLVQAGGSLRLSCAASGFIIVFYDMGWYRQAPGKERELVAGITRNDGSTYYADSVKGRFKISRDNAKNTVYLQMNSLKPEDTAVYYCAADRVRRNDKLAYDYWGQGTQVTVSS | low polyreactivity
13 | QVQLVESGGGLVQAGGSLRLSCAASGSIFLVYALGWYRQAPGKERELVATITRGGGTYYADSVKGRFTISGDNAKNTVYLQMNSLKPEDTAVSYCAYPLSRTWGNYLAWSYPRDDSWGQGTQVTVSS | high polyreactivity
14 | QVQLVESGGGLVHAGGSLRLSCAASGFIFPWYAMGWSRQAPGKERELVAIISWDTGSTYYADSVKGRFTISRDNAKNTVYLQINRLKPEDSAVYYCVAYVGSTYSAPEYYWGQGTQVTVSS | low polyreactivity
15 | QVQLVESGGGLLQAGGSLRLSSAASGVYAMGWYRQAPGKERELVAAISRRGGSTYYADSVKGRFTISRDNAKNTVYLQMKSLNPADTAVYYCAADYTSRTRGNRDRLDYWGQGTQVTVSS | high polyreactivity
16 | QVQLVESGGGLDQAGGSLRLSCAASGRTFTEYAMGWYRQAPGKERELVARISIGDSTYYADSVKGRFTISRDNAKNTDYLQMNSLKPEDTAVYYCNAEYSRSYRYDEGYWGQGTQVTVSS | low polyreactivity
17 | QVQLVESGGGLVQAGGSLRLSCAASGSTFAKYAMGWYRQAPGKERELVAAISSSGTSTYYADSVKGRFTISRDNAKNTVYLQMNSLKPEDTAVYYCAASYRNRYIAFYYWGQGTQVTVSS | low polyreactivity
18 | QVQLVESGGGLVQAGGSLRLSCAASGSTFGAYAMGWYRQAPGKERELVAAISRSGASTYYADSVKGRFTISRDNAKNTVYLQMNSLKPVDTAVYYCAAKIVSRYRVIYDYWGQGTQVTVSS | high polyreactivity
19 | QVQLVDSGGGLVQAGGSLRLSCAASGLSFLVNAMGWYRQAPGKERELVAAIDRDGGITYADSVKGRFTISRDNAKNTVYLQMNSLKPDDTAVSYCAADPSSYGRFTYDYWGQGTQVNVSS | low polyreactivity
20 | QVHLVESGGGLVQAGGSLRLSCAASGSTFQSNAMGWYRQAPGKERELVATITQSGATTYYADSVKGRFTISRDNAKNTVYLQMNSLNPEDTAVYYCNVDTYQKRWFWLDLDGGYWGQGTQVTVSS | low polyreactivity
21 | QVQLVESGGGLVQEGGSLRLSCAASGTFYDYVMGLYRPAPGKERELVATISDNDGSTYYADSVKGRFTISRDNAKNTVYLQKNSLKPEDTALYYCNAGRTWPIVADYSWLSYGSWGQGTQVTVSS | high polyreactivity
22 | QVQLVESGGGLVQAGGSLRLSCAASGSIFYLYAMGWYRQAPGKERELVATISLSSGSTYAASVKGRFTISRDNAKNTVYLQMNSLKPEDTAVDYCAKDLTRWGYNEYDYWGQGTQVSVSS | low polyreactivity

Row | Sequence | polyreactivity (PSR sort gate)
23 | QVQLVESGGGLVQAGGSLRLSCAASGSIFGLYAMGWYRQAPGKERELVAAISRSGGSTYYADSVKGRFTISRDNAKNTVYLQMYSLKPEDSAVYDCNALRWSQYTYSSRLGHFDSWGQGTQVTVSS | high polyreactivity
24 | QVQLVESGGGLVQAGGSLSLSCAASVRIFVYNVMGWYRQAPGKERELVAAISWGTGSTYADSVKGRFTISRDNAKNTVYLQMNSLKPEDTAVYYCAAAADYYYDHDYWGQGTQVTVSS | low polyreactivity
25 | QVQLVESGGGLVQAGGSLRLSCAGSGRIFARNAMGWYRQAPGKARELVAGITWSGSSTYYADSVKGRFTISRDNAKNTVYLQMNRLKPEDTAVYYCAVDYYVGSLRIHHDYWGQGTQVTVSS | low polyreactivity
26 | QVQLVETGGGLVQAGGSLSLSCAGSGHTFTNNAMGWYRQAPGKERELVAAITFSGGRTYYADSVKGRFTISRDNAKNTVYLQKNSLKPEDTAVYYCDAVNPGGSIYDYWGQGTQVTVSS | low polyreactivity
27 | QVQLVESGGGLVQAGGSLRLSCAASGFIFEMYAMGWYRQAHGKERELVAAISSSGDSTYYADSVKGRFTISRDNEKNTVYLQMNSLIPEDNAVYYCATECGYALYDYWGQGTQVTVSS | low polyreactivity
28 | QVQLVESGGGLVQAGGSLRLSCAASGSINYYAMGWYRQAPGKERELVAAITGSGGSTYYADSVKGRFTISRDNAKNTVYLQMNSLITEDTSVYYCAARYGYIYGPYYYWGQGTQVTVST | high polyreactivity
29 | LVQLVESGVGLVHAGRSLRLSCAASGSIFPYYTMGWYRPAPGKERELVAAISGSGGSTYYADSVKGRFTISRDNAKNTVYLQMNSLKPEYTAVYYCAAYRRTWFDYWGQGTQVTVSS | high polyreactivity
30 | QVQLVESGGGLVQAGGSLRLSCAASGRSFCYNAMGWYSQAPGKERELVAGISSSGGTTYYADSVKGRFTISRDKAKNTVYLQMNSLKPEDTAVYYCAKRFSLLSTVRWGRYNYWGQGTQVTVSS | high polyreactivity
31 | QVQHVESGVGLVQAGGSLRLSCAASGRIFRWNAMGWYRQAPGKERELVAAISWNGGRTYYADSVKGRFTISRDNAKNTVYLQMNSLKPEDTAVYYCAAPHCVPDLHSGDYWGLGTQVTVSS | low polyreactivity
32 | QVQLVESGGGLVQAGGSLRLSCAASGFIFCTNAMGWYRQAPGKERELVAGISRTGGRTYYADSVKGRFTISRDNAKNTVYLQMNSLKPEDTAVYYCAAVARRHKVYEYDYWGQGTQVTVSS | high polyreactivity
33 | QVQLVESGGGLVQAGGSLRLSCAASGSTVRYNAMGWYRQARGIERELVAAISYGSSTNYADSVKGRFTISRDNAKNTVFLQMNSLKPEDTAVYYCAAQPGYYDDFYYWGHGTQVTVSS | low polyreactivity
34 | QVQLVESGGGLVQAGGSLRLSCAASGSTFAGNAMGWYRQAPGKERESVAAIDSSTGSTYYADSVKGRFTISRDNAKNTVYLQMTSLKPEDTAVYYCNKTSFLVKLDYWGQGTHVTVSS | low polyreactivity
35 | QVQLVESGGGLVQAGGSLRLSCAASGRIFPVYAMGWYRQAPGKERELVAAISRRGGSTYYADSVKGRFTISRDNAKNTVYLQMNSLKPEDTAVYYCAATAYYYWWWYGGDMDYWGQGTQVTLSS | high polyreactivity
36 | QVQLLESGGGLVQAGGSLRLSCAASGSTFQRYVMGWYRQAPGKERELVATITKSGGSTYYADSVKGRFTISRDIAKNTVYLQMNSLKPEDTAVYNCAAYLQWAFRGYYHWGQGTQVTVTS | high polyreactivity
37 | QVQLVESGGGLVQAGGSLRLSCAASGLTFSRYAMGWYRQAPGKERELVAAITSIGGSTYYADSVKGRFTISRDNAKNTVYLQMNSLKPEDTAVYYCRAFFRRDYWGQGTQVTVSS | high polyreactivity
38 | QVQLVESGGGLVQAGGSLRLSCAASGRILVSYARGWYRQAPGKERELVAGITSGGDSTYYADSVKGRFTISRDNAKNTVYLQMNSLKPADTAVYSCAADRYGYRGRKNVRERYNYWGQGTQVTVSS | high polyreactivity
39 | QVQLVESGGGLVQAGGSLRLSCAASGFIFTVYAMGWYRQAPGKERELVAAINRSGTRTTYADSVKGRFSISRDNAKNTVYIQMNSLKPEDTAVYYCAALSTGSHWQNEYGYWGQGTQVTVSS | low polyreactivity
40 | QVQLVESRRGLVQAGASLPLRCAASVSTLDTYAMGLYRQAPGKERELVAAISRSGNSTYYADSVKGRFTISRDNAKNTVYLQMNSLKPEDTAVYYCAAYGPRVNGEIGREYYYWGQGTQVTVSS | low polyreactivity
41 | QVQLVESGGGLVQAGGSLRLSCAASGFTIAVYVMGWYRQAPGNERELVATISFSVGSTYYADSVKGRFTISRDNAKNTVYLLMNCLKPEVTAVYYCNADPPPEYYPDKDNSWGQGTQVTVSS | low polyreactivity
42 | QVQLVESGGGLVQAGGSLRLSCAASGSTFYTNAMGWYRQAPGQERELVAAISASVGSTYYADSVKGRFTISRDYAKNSVYLQMNSLKPEDTAVYYCAADVWASRRYDYWGQGTQVTVSS | low polyreactivity
43 | QVQLVESGGGLVQAGGSLRLSCAASGSIFWPNTMGWYRQAPGKERELVATISSGGDTSYADSVKGRFTISRDNAKNTVYLQMNSLKPEDTAVYYCAKRITVDDVHPRAQTYNYWGQGTQVTVSS | low polyreactivity

Source: the nanobody polyreactivity screen of Harvey et al. (2022)
